Results taken from patent publication US6458552B1, “Metalloprotease peptide substrates and methods” (Ortho-McNeil Pharmaceutical, Inc., priority 2000, dated 2002).

T1: ADAM8 (Homo sapiens, UniProt P78325)
T1 construct: FLAG (C); made in house; host or cells: Sf9 insect cells (baculovirus, pFastBac1)
T1 sequence (P78325 200-400 limits assumed): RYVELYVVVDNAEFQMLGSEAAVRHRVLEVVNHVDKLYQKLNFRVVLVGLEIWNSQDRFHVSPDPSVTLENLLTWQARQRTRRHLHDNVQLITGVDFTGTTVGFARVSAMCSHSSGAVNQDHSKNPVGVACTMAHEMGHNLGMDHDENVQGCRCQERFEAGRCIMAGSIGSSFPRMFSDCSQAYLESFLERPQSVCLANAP

T2: ADAM15 (Homo sapiens, UniProt Q13444)
T2 construct: FLAG (C); made in house; host or cells: Sf9 insect cells (baculovirus, pFastBac1)
T2 sequence (Q13444 213-414 limits assumed): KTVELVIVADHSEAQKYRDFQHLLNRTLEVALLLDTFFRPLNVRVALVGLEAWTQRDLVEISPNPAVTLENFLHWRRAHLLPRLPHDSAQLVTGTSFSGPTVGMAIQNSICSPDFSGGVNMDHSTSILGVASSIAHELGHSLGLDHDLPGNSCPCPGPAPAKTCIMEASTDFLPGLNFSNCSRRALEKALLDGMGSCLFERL

T3: MDC-L (Homo sapiens, UniProt Q9UKQ2)
T3 construct: FLAG (C); made in house; host or cells: Sf9 insect cells (baculovirus, pFastBac1)
T3 sequence (Q9UKQ2 204-399 limits assumed): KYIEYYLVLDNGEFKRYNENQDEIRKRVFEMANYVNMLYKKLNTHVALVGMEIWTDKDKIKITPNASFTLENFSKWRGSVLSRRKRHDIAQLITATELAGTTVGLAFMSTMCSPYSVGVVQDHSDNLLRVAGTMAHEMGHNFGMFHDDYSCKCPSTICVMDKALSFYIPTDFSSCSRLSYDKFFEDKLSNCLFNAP

T4: CatE1 FRET peptide X-KPAKFFRL-Z (not fully specified)
T4 chain: KPAKFFRL

B1: soluble recombinant human ADAM8 with pro- and protease domains and C-terminal FLAG epitope (inactive precursor form) (protein)
chain: IAPSRPWALMEQYEVVLPWRLPGPRVRRALPSHLGLHPERVSYVLGATGHNFTLHLRKNRDLLGSGYTETYTAANGSEVTEQPRGQDHCFYQGHVEGYPDSAASLSTCAGLRGFFQVGSDLHLIEPLDEGGEGGRHAVYQAEHLLQTAGTCGVSDDSLGSLLGPRTAAVFRPRPGDSLPSRETRYVELYVVVDNAEFQMLGSEAAVRHRVLEVVNHVDKLYQKLNFRVVLVGLEIWNSQDRFHVSPDPSVTLENLLTWQARQRTRRHLHDNVQLITGVDFTGTTVGFARVSAMCSHSSGAVNQDHSKNPVGVACTMAHEMGHNLGMDHDENVQGCRCQERFEAGRCIMAGSIGSSFPRMFSDCSQAYLESFLERPQSVCLANAP

Assays:
[1] = target: T1, ADAM8; assay: FRET peptide substrate screening, ADAM8; format: biochemical; set-up: key: from one star (*) to five stars (*****) to indicate weaker to more potent substrates respectively; from one star (*) to five stars (*****) to indicate weaker to more potent substrates respectively; from one star (*) to five stars (*****) to indicate weaker to more potent substrates respectively; from one star (*) to five stars (*****) to indicate weaker to more potent substrates respectively; (—) = no detectable activity; conditions: FRET peptide 20 uM, room temperature
Excerpt: (§1) Forty nine different peptides were synthesized for testing protease activity. The peptides comprised (i) a collection of substrates for other proteases, as well as (ii) a number of sequences corresponding to membrane proximal cleavage sites of various proteins postulated to be released by metalloproteases (including those published by (Roghani et al., 1999) for ADAM9/MDC9). In order to use the principle of fluorescence resonance energy transfer, or FRET, for the assay, the peptides were labelled at the C-terminus with Dabcyl and at the N-terminus with Edans. Thus cleavage of the peptides can be monitored by the increase in Edans fluorescence at 460 nm (excitation 360 nm) as a result of the decrease in proximity of the Dabcyl quencher. The assay was performed by diluting the ADAM8, ADAM15, MDC-L, or ADAM17 (50 to 100 ng of protein, one to two picomoles) in assay buffer, 10 mM HEPES, pH 7.5, containing 0.001% Brij35. The reaction was initiated by the addition of peptide substrate to a final concentration of 20 uM. The assays were typically run for 20 to 60 minutes at room temperature and the slope of the kinetic increase in fluorescence was determined to calculate the rate of the reaction. If necessary, it was possible to stop the reaction at a certain time by the addition of 1/10th volume of 1M NaOAc (sodium acetate), pH 3.5.
(§2) This peptide was cleaved by all enzymes, and thus was chosen to represent a standard by which to compare the relative activity of the various enzymes for their potential to cleave the various peptide substrates.

[2] = target: T2, ADAM15; assay: FRET peptide substrate screening, ADAM15; format: biochemical; set-up: key: from one star (*) to five stars (*****) to indicate weaker to more potent substrates respectively; from one star (*) to five stars (*****) to indicate weaker to more potent substrates respectively; from one star (*) to five stars (*****) to indicate weaker to more potent substrates respectively; from one star (*) to five stars (*****) to indicate weaker to more potent substrates respectively; (—) = no detectable activity; conditions: FRET peptide 20 uM, room temperature
Excerpt: as §1, §2

[3] = target: T3, MDC-L; assay: FRET peptide substrate screening, MDC-L; format: biochemical; set-up: key: from one star (*) to five stars (*****) to indicate weaker to more potent substrates respectively; from one star (*) to five stars (*****) to indicate weaker to more potent substrates respectively; from one star (*) to five stars (*****) to indicate weaker to more potent substrates respectively; from one star (*) to five stars (*****) to indicate weaker to more potent substrates respectively; (—) = no detectable activity; conditions: FRET peptide 20 uM, room temperature
Excerpt: as §1, §2

[4] = target: T5, ADAM17 (Homo sapiens, UniProt P78536); assay: FRET peptide substrate screening, ADAM17; format: biochemical; set-up: key: from one star (*) to five stars (*****) to indicate weaker to more potent substrates respectively; from one star (*) to five stars (*****) to indicate weaker to more potent substrates respectively; from one star (*) to five stars (*****) to indicate weaker to more potent substrates respectively; from one star (*) to five stars (*****) to indicate weaker to more potent substrates respectively; (—) = no detectable activity; conditions: FRET peptide 20 uM, room temperature
T5 construct: made in house
Excerpt: as §1, §2

[5] = target: T1, ADAM8; assay: Kinetic analysis of the affinity of ADAM8 for cleavage of 4 peptides; format: biochemical; conditions: for K0.5 (substrate concentration at which the enzyme activity was 50% of the Vmax): ADAM8, 30 minutes at room temperature, by inspection of the fitted curves; for Cleavage site of ADAM8 within the peptide: carot marks the cleavage site
Experimental: To confirm the screening assay, ADAM8 was further analyzed for its catalytic rate for 4 different peptides. The assay was performed by diluting the ADAM8 in assay buffer, 10 mM HEPES, pH 7.5, containing 0.001% Brij35. […] The assay was run for 30 minutes at room temperature. […] The curves were fitted to the data with the program Grafit (Erithacus Software). […] The Vmax for each substrate was calculated by non-linear fitting of the data. The substrate concentration at which the enzyme activity was 50% of the Vmax (designated “K0.5”) was determined by inspection of the fitted curves. Table 2 also provides the cleavage site of ADAM8 within each peptide, as indicated by a carot within the peptide sequence.

[6] = target: T4, CatE1 FRET peptide X-KPAKFFRL-Z

T5 sequence (P78536 215-824, species assumed): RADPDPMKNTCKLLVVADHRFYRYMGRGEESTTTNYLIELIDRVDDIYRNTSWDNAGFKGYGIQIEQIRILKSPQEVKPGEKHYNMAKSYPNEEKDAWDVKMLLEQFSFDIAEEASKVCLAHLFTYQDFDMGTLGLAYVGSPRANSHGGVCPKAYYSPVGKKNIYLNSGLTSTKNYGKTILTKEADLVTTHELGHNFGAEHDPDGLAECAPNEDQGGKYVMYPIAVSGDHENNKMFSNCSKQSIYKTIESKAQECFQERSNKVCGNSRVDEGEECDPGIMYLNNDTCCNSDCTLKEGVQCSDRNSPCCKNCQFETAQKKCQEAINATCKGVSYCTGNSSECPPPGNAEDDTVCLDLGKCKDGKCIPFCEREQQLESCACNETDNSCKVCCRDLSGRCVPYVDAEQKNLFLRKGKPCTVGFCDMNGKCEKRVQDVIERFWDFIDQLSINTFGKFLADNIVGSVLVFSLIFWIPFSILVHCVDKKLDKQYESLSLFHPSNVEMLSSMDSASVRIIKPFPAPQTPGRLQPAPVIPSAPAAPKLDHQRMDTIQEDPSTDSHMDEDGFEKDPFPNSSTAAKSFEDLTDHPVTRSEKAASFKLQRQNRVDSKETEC

Molecule | Relative proteolytic activity ADAM8 [1] | Relative proteolytic activity ADAM15 [2] | Relative proteolytic activity MDC-L [3] | Relative proteolytic activity ADAM17 [4] | K0.5 (substrate concentration at which the enzyme activity was 50% of the Vmax) [5] | Cleavage site of ADAM8 within the peptide [5] | fluorometric proteolytic assay / FRET peptide zymography [6]
X-PPVAASSLRN-Z ({Edans‑E}-PPVAASSLRN-{dabcyl‑K}) [KL1, FRET peptide substrate; X = Edans-E; Z = dabcyl-K] | *** | *** | *** | (—) |  |  | 
Z-RGVVNASSRLAK-X ({dabcyl‑K}-RGVVNASSRLAK-{Edans‑E}) [KAS-1, FRET peptide substrate; X = Edans-E; Z = dabcyl-K] | *** | *** | *** | (—) |  |  | 
X-KPAKFFRL-Z ({Edans‑E}-KPAKFFRL-{dabcyl‑K}) [CatEl, FRET peptide substrate; X = Edans-E; Z = dabcyl-K] | ***** | ***** | ***** | (—) | 2.5 µM | XKPAKF^FRLZ | 
Z-RPLGLAR-X ({dabcyl‑K}-RPLGLAR-{Edans‑E}) [Mat, FRET peptide substrate; X = Edans-E; Z = dabcyl-K] | *** | *** | *** | *** |  |  | 
X-PSAAQTARQHP-Z ({Edans‑E}-PSAAQTARQHP-{dabcyl‑K}) [TNFB2, FRET peptide substrate; X = Edans-E; Z = dabcyl-K] | *** | *** | *** | (—) |  |  | 
X-RFAQAQQQLP-Z ({Edans‑E}-RFAQAQQQLP-{dabcyl‑K}) [CD27L, FRET peptide substrate; X = Edans-E; Z = dabcyl-K] | **** | **** | **** | (—) | 5 µM | XRFAQA^QQQLPZ | 
X-PLAQAVRSSS-Z ({Edans‑E}-PLAQAVRSSS-{dabcyl‑K}) [TNFα, FRET peptide substrate; X = Edans-E; Z = dabcyl-K] | *** | *** | *** | *** | 5 µM | XPLAQAVRS^SSZ | 
X-KPAAFFRL-Z ({Edans‑E}-KPAAFFRL-{dabcyl‑K}) [CatE, FRET peptide substrate; X = Edans-E; Z = dabcyl-K] | ***** | ***** | ***** | (—) | 5 µM | XKPAAF^FRLZ | 
X-RTAAVFRP-Z ({Edans‑E}-RTAAVFRP-{dabcyl‑K}) [AD8P, FRET peptide substrate; X = Edans-E; Z = dabcyl-K] | * | * | * | ***** |  |  | 
Z-LAQAVRSSSR-X ({dabcyl‑K}-LAQAVRSSSR-{Edans‑E}) [TNFα(−4 + 6), FRET peptide substrate; X = Edans-E; Z = dabcyl-K] | * | * | * | *** |  |  | 
X-RVRRALPS-Z ({Edans‑E}-RVRRALPS-{dabcyl‑K}) [AD8P2, FRET peptide substrate; X = Edans-E; Z = dabcyl-K] | *** | *** | *** | (—) |  |  | 
B1 |  |  |  |  |  |  | showed no activity in the fluorometric proteolytic assay
